Assays:
[1] = target: Skeletal actin, unmodified (0% ADPR-actin control) (not stated (purified from rabbit or chicken skeletal muscle)) (UniProt P68135)
[2] = target: T148-ADP-ribosylated-actin (100% TccC3-ADP-ribosylated actin) (not stated (purified from rabbit or chicken skeletal muscle)) (UniProt P68135); test: fluorescence polarisation

## Thymosin-β4 (peptide)
[1]
  time at which 50% of actin is polymerized (t1/2); 2.5 µM pyrene-labeled (5%) G-actin, 0% modified, with 2.5 µM TMSB4: 2.04 h
[2]
  fold reduction of affinity against unmodified actin: 6.4 fold
